B1: minF1; a variant is named by its letters at N, in order (parent)
chain: GAGACCGCAACTGAAAAGTTGTTNNNNAANNNNGGNTNNATTTCTGCACGTAGAAGCAAAAGGC

Variants of: B1
Test: fraction ligated after 30 min (ligated reads / total reads); higher = more ligase activity
Conditions: with F1*subA RNA substrate (template-directed ligation), 42 °C
Experimental: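 Chip-synthesised pool of minF1 ligase ribozyme variants (single and double substitutions, single to quadruple deletions, bulge and P2 designed variants) was transcribed with T7 and reacted as a pool with excess substrate F1*subA for 30 min at 42 C in 50 mM EPPS pH 8.5, 25 mM MgCl2. Ligated and unligated RNAs were separated by PAGE, barcoded by RT and deep sequenced; fraction ligated = ligated reads / total reads, relative activity = FL / FL of wild-type minF1 (0.76); sequencing FL correlated with PAGE (R2 = 0.98). Sequences are the DNA template of the ribozyme.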

Point of comparison: TAGAGGATGTG, fraction ligated 0.00216. Against it:
- TAGAGGATGTG A29T — higher, 0.0045
- TCAAGGTGTGA — higher, 0.00226
- CAGAGGATGTG A29T — higher, 0.0108
- GAAAGATGTGA T23C A28T A29G — lower, 0.00212
- ACAATGGGTGA — higher, 0.00353
- CAGATGGAGTG T23A — higher, 0.00354
- CAAAGGAGTGA T23A A29T — higher, 0.00224
- TAGATGGATGA — lower, 0.00101
- TAGAGGATGTA — lower, 0.000988
- CAGAGGATGTG T23A — higher, 0.00549
- TCAATGGAGTG — higher, 0.00581
- TCAATGGAGTA — higher, 0.00279
- TCAATGATGTA T23A — higher, 0.00393
- TCAATGATTGA — lower, 0.00117
- CAGATGGATGA — higher, 0.00376
- TCAAGGAGTGA A29T — lower, 0.00143
- CAGATGGAGTA G34T — higher, 0.00644
- ACAAGATGTGA A29T — higher, 0.0029
- ACAAGATGTGA A29G — higher, 0.0031
- AAAAGATGTGA A29T — higher, 0.00419
- AAAAGATGTGA A29G — higher, 0.00274
- CAGAGGATGTA T23A A29T — higher, 0.00576
- CAAAGGATGTA A29T — lower, 0.00185
- TCAAGGATGTG T23A A29T — higher, 0.0062
- TAGATGTGTGA T23A — lower, 0.00136
- CAGAGATGTGA T23A — higher, 0.00241
- CAAAGGATTGA T23A A29T — higher, 0.00487
- CAGAGGAGTGA A29T — lower, 0
- CAGATGATGTG T23A — higher, 0.00584
- ACAATGGAGTA G34T — higher, 0.0117
- TAGAGATGTGA A29T — higher, 0.00374
- TAGAGATGTGA A29G — higher, 0.00391
- CAGATGAGTGA T23A — higher, 0.00277
- ACAAGGATGTA A29T — higher, 0.00548
- TAGATGGGTGA T23A — lower, 0.000824
- AAGAGGTGTGA A29T — lower, 0.00145
- CAGATGGAGTG T23A G34T — higher, 0.0111
- CAGATGGAGTA T23A G34T — higher, 0.00843
- TAGATGATGTG — higher, 0.0051
- TAGATGATGTA — lower, 0.00158
- CAAAGGTGTGA T23A A29T — higher, 0.00303
- TAGAGGATTGA A29T — higher, 0.00809
- TAGAGATGTGA A28T A29G — higher, 0.00491
- TCAATGGAGTT T23A G34T T37G — lower, 0.00105
- AAGATGGATGA — higher, 0.00526
- AAGAGATGTGA A28T A29G — higher, 0.00397
- TCAAGGAGTGA — lower, 0.000917
- TAGAGGATGTA T23A A29T — lower, 0.00136
- AAGATGGAGTG G34T — higher, 0.00776
- ACAAGGATGTG — higher, 0.00585
- ACAAGGATGTA — lower, 0.00108
- AAAAGATGTGA T23A A28T A29G — higher, 0.00631
- ACAATGGAGTT G34T T37G A40G — lower, 0.00101
- CAGAGGATTGA T23A — higher, 0.00223
- TAGAGGATTGA T23A A29T — higher, 0.00233
- CAGAGATGTGA T23A A28T A29G — higher, 0.00252
- TAGATGAGTGA T23A — higher, 0.00274
- CAGAGATGTGA — higher, 0.00372
- CAGAGGATTGA A29T — higher, 0.0052
- CAGATGATGTA — higher, 0.00303
- CAGATGATGTG — higher, 0.00641
- TCAATGATTGA T23A — higher, 0.00254
- TAAAGGATTGA T23A A29T — higher, 0.00317
- ACAATATGTGA — higher, 0.00334
- TAGATGATTGA T23A — higher, 0.00257
- CAGATGGAGTT T23A G34T T37G — lower, 0.00071
- TCAAGGATGTG A29T — higher, 0.00632
- ACAATGATGTG — higher, 0.00556
- ACAATGATGTA — lower, 0.00197
- CAAAGGTGTGA A29T — lower, 0.00133
- TCAATGGAGTG T23A — higher, 0.0035
- CAGAGGATGTA — lower, 0.000794
- CAGAGGATGTG — higher, 0.00526
- TAAAGGATGTA T23A A29T — lower, 0.000932
- CAGATGGTGTA T23A — higher, 0.00242
- AAGATGGAGTT G34T T37G — lower, 0.00134
- CAGAGGATTGA — higher, 0.00276
- TCAAGGATTGA T23A A29T — higher, 0.00443
- TCAAGGAGTGA T23A A29T — higher, 0.00288
- TAGAGGTGTGA T23A A29T — higher, 0.00331
- CAGATGGTGTG T23A — higher, 0.00474
- TCAAGATGTGA T23A A28T A29G — higher, 0.00482
- AAGAGGAGTGA A29T — lower, 0.00209
- TCAAGGAGTGA T23A — lower, 0.00195
- ACAATGGAGTG G34T — higher, 0.0274
- CAGATGATTGA T23A — lower, 0.00168
- TCAAGATGTGA T23A — lower, 0.0017
- AAGATGGTTGA — lower, 0.00185
- ACAAGATGTGA A28T A29G — higher, 0.00369
- CAGATGGAGTT G34T T37G A40G — lower, 0.000312
- TAAAGGTGTGA A29T — lower, 0.0019
- AAGAGGATTGA A29T — higher, 0.007
- TAGAGATGTGA T23A A28T A29G — higher, 0.00684
- AAGAGGATGTA — lower, 0.000999
- AAGAGGATGTG — higher, 0.00366
- TAAAGATGTGA A29T — higher, 0.00224
- TAAAGATGTGA A29G — lower, 0.00158
- TAGATGGGTGA — higher, 0.00433
- TAAAGGATGTG A29T — higher, 0.00445
- TAGATGAGTGA — higher, 0.00265
- AAGAGGATGTA A29T — lower, 0.00173
- TAGATGTGTGA — higher, 0.00395
- AAGATGATTGA — higher, 0.0028
- TAGATGGTGTG — higher, 0.0042
- TAGATGGTGTA — lower, 0.00141
- CAAAGATGTGA A29T — higher, 0.00371
- CAAAGATGTGA A29G — higher, 0.00439
- AAGAGGATTGA — lower, 0.00146
- TAGATGGAGTG T23A G34T — higher, 0.00936
- TAGAGGATTGA — lower, 0.00125
- TAGAGATGTGA T23A — higher, 0.00319
- TAAAGGAGTGA A29T — lower, 0.00185
- TAGATGATGTG T23A — higher, 0.00386
- AAGAGGAGTGA — higher, 0.00337
- TAAAGGAGTGA T23A A29T — higher, 0.00645
- TAGAGGATGTG T23A — higher, 0.00675
- CAGAGGTGTGA T23A — higher, 0.00265
- TAGATGGAGTA T23A — lower, 0.000612
- TAGAGGAGTGA — higher, 0.00669
- TAGATATGTGA — lower, 0.00128
- TCAATGAGTGA T23A — higher, 0.00315
- CAGATGGAGTT T23A G34T T37G A40G — higher, 0.00303
- AAGAGGTGTGA — higher, 0.00286
- AAGATGATGTG — higher, 0.00397
- AAGATGATGTA — lower, 0.00102
- TAGAGGATGTA T23A — higher, 0.00339
- TCAATGGAGTA T23A — lower, 0.00206
- TCAATATGTGA — lower, 0.00184
- ACAAGGTGTGA A29T — higher, 0.00256
- AAGATGAGTGA — higher, 0.00469
- CAGATGGAGTA T23A — lower, 0.00106
- AAGATGTGTGA — higher, 0.00241
- TAGAGGAGTGA T23A — higher, 0.0026
- TAGAGGTGTGA T23A — lower, 0.00196
- TCAAGATGTGA A28T A29G — higher, 0.00257
- TCAATGAGTGA — lower, 0.0012
- TAGATGGAGTT G34T T37G A40G — lower, 0.00199
- CAGATATGTGA T23A — higher, 0.00265
- TCAAGGATTGA A29T — higher, 0.00468
- TCAAGGTGTGA T23A A29T — higher, 0.00393
- CAGATGGAGTA — higher, 0.00249
- CAGATGGAGTG — higher, 0.00678
- TAGATGGATGA T23A — higher, 0.00368
- TAGAGGATTGA T23A — lower, 0.00191
- CAAAGGATGTG A29T — higher, 0.0079
- TCAAGGATTGA — higher, 0.00222
- TAGAGGATGTG T23A A29T — higher, 0.00945
- AAGATGGTGTA — higher, 0.00401
- AAGATGGTGTG — higher, 0.00357
- CAGAGGTGTGA — higher, 0.00486
- ACAAGGATGTG A29T — higher, 0.00671
- CAGAGGTGTGA T23A A29T — lower, 0.00102
- CAGATGGTTGA T23A — higher, 0.00385
- TCAATGGAGTG G34T — higher, 0.0438
- TAAAGATGTGA T23A A29G — higher, 0.00271
- TAAAGATGTGA T23A A29T — higher, 0.00358
- TCAAGGATGTA T23A — lower, 0.000851
- TAAAGGATTGA A29T — lower, 0.00151
- TAGAGGAGTGA T23A A29T — higher, 0.00307
- TCAATGGAGTT T23A G34T T37G A40G — lower, 0.00124
- TCAAGATGTGA A29T — higher, 0.00235
- TCAAGATGTGA A29G — higher, 0.0031
- TAAAGATGTGA T23A A28T A29G — higher, 0.00461
- CAAAGATGTGA A28T A29G — higher, 0.00352
- CAAAGGATTGA A29T — higher, 0.0034
- AAGAGATGTGA A29T — higher, 0.00363
